In publication PMC3293223 (Biochemistry, 2012):

Legend:
[1] = biological target: thioredoxin mutant including only C32 (TRXC32) (UniProt P10599); assay: cross-linking
SEC = biological target: the molecule itself; assay: SEC

stoichiometry N [1]	Molecule	binding result (SEC)
2	thioredoxin mutant including only C32 (TRXC32) (from UniProt P10599 1-105) (enzyme)	–
–	N-terminally truncated APE1 including only Cys 99 with all other Cys residues mutated to Ala (40APE1 C99) (domain or fragment, human, UniProt P27695 41-318, looked up, Cys 99 oxidised with 1 mM diamide before the reaction with TRXC32) GPALYEDPPDQKTSPSGKPATLKIASWNVDGLRAWIKKKGLDWVKEEAPDILALQETKCSENKLPAELQELPGLSHQYWSAPSDKEGYSGVGLLSRQAPLKVSYGIGDEEHDQEGRVIVAEFDSFVLVTAYVPNAGRGLVRLEYRQRWDEAFRKFLKGLASRKPLVLAGDLNVAHEEIDLRNPKGNKKNAGFTPQERQGFGELLQAVPLADSFRHLYPNTPYAYTFWTYMMNARSKNVGWRLDYFLLSHSLLPALADSKIRSKALGSDHAPITLYLAL	binds
